Data taken from article PMC4423706, “Mechanism of Thiosulfate Oxidation in the SoxA Family of Cysteine-ligated Cytochromes” (The Journal of Biological Chemistry, 2015).
Numbering of substitutions follows the chain as printed. Names and notes keep the numbering of the source.

T1: TsdA (thiosulfate dehydrogenase) (Allochromatium vinosum, UniProt D3RVD4)
T1 construct: native signal peptide (removed on export), C-terminal strep(II) tag kept; E. coli Lemo56(DE3) with pEC86; two c-type hemes; 28,228 Da by ESI-MS; 234 residues modeled
T1 sequence (D3RVD4 28-270): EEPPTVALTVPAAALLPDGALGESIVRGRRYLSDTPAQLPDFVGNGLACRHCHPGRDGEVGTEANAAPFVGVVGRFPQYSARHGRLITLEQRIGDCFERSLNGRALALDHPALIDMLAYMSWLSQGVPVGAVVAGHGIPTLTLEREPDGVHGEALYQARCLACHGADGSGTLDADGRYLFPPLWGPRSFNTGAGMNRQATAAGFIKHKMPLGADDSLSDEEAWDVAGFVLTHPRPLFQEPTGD

B1: TsdA (thiosulfate dehydrogenase) (Allochromatium vinosum DSM 180) (protein)
chain: T1 sequence (D3RVD4 28-270)
notes: native signal peptide (removed on export), C-terminal strep(II) tag kept; E. coli Lemo56(DE3) with pEC86; two c-type hemes; 28,228 Da by ESI-MS; 234 residues modeled
B2: TsdA (thiosulfate dehydrogenase) (Allochromatium vinosum DSM 180; S127A) (protein)
chain: T1 sequence (D3RVD4 28-270) with S100A
notes: as for B1
B3: TsdA (thiosulfate dehydrogenase) (Allochromatium vinosum DSM 180; R119A) (protein)
chain: T1 sequence (D3RVD4 28-270) with R92A
notes: as for B1
B4: TsdA (thiosulfate dehydrogenase) (Allochromatium vinosum DSM 180; R109A) (protein)
chain: T1 sequence (D3RVD4 28-270) with R82A
notes: as for B1
B5: TsdA (thiosulfate dehydrogenase) (Allochromatium vinosum DSM 180; R224A) (protein)
chain: T1 sequence (D3RVD4 28-270) with R197A
notes: as for B1

substrate: O=S(O)(O)=S; assay: purified protein; assay type: biochemical, Allochromatium vinosum; settings: 1 mM potassium ferricyanide as electron acceptor, 100 mM ammonium acetate pH 4.25, 24 °C

Row | Molecule | Km [mM] | kcat [s⁻¹]
1 | B1 | 2.2 ± 0.3 | 4280 ± 150
2 | B2 | 10.7 ± 6.2 | 3060 ± 920
3 | B3 | 47 ± 7 | 640 ± 40
4 | B4 | 5.8 ± 0.8 | 3210 ± 310
5 | B5 | 2.5 ± 0.8 | 3670 ± 460

target: T1, TsdA (thiosulfate dehydrogenase); assay: ESI-MS of intact protein; assay type: biochemical; settings: covalent; S-thiosulfonation of Cys123, +112 Da; pH 4.25 and pH 8.0; no electron donor

Row | Molecule | ESI-MS of intact protein
6 | O=S(=O)(O)SSS(=O)(=O)O [tetrathionate] | Tetrathionate treatment under both conditions gave the 112-Da increase in mass
